According to publication PMC9158119 (Frontiers in Immunology, 2022):

B1: Nb-008 (VHH)
VHH: EVQVVESGGGLVQAGGSLRLSCAASGSTSNLRVTGWYRQTPGKQRELVAAISNAGATVYPDSVAGRFTLSRDNAKNTVTLQINSLKPEDTAVYYCNARRFGRDYWGQGTQVTVSS
B2: Nb-010 (VHH)
VHH: EVQVVESGGGLVQAGGSLRLSCTASGSTFTRYPMGWYRQAPGKQRELVAGFTVVGATIYADSVKGRFALSRDNAKKTIDLQLDSLKPDDTGVYYCSMYTYWGQGTQVTVSS
B3: Nb-007 (VHH)
VHH: QLQLVESGGGLVQAGGSMRLSCAASISFSSFPMGWHRQAPGKQRELVAKTGIGGTAYDDSVKGRFTISRDNTKNTVYLQMNSLKVEDTAVYYCWGWRMNDYWGQGTQVTVSS
B4: Nb-004 (VHH)
VHH: QLQLVESGGGLVQAGGSLGLSCAASGITLGDYRMGWYRQAPGKQRELVARFTNAGAILYGDSVKGRFTISMNNAKNTVYLQINSLKPEDTAVYYCNARTTRGIDNWGQGTQVTVSS
B5: Nb-005 (VHH)
VHH: EVQLVESGGGLVQAGGSLRLSCAASGSAFNDYAMGWYRQAPGKQRELVARFTNVGATLSSNSVKGRFTISRDNAKNTVFLQMNSLKPEDTAVYYCHAGHRILLGREYWGQGTQVTVSS
B6: Nb-002 (VHH)
VHH: EVQLVESGGALVQPGGSLRLSCAASGFTLDAAAIGWFRQAPGKEREWVSCINRVGGGFYSDSAKGRFTISRDNDKNTVYLQMNSLKFEDTAVYYCAADSDSPRFGCSDSRARYEYWGQGTQVTASS
B7: Nb-003 (VHH)
VHH: EVQVVESGGGLVQAGGSLRVSCAASGSTSSRYIMAWYRQAPGKQRELVASITLVGATIYKDSVKGRFTISGDNAKKTVYLQMNNLKPEDTAVYYCNQIDPLIGGPGYWGQGIQVTVSS
B8: Nb-001 (VHH)
VHH: EVQLVESGGGLVQAGGSLRLSCAASGSIFRLYTIDWYRQAPGKQRELVATISGTSPTNYADSVKGRATISRDNAKNTVYLQINSLKPEDTAVYYCHTVSGNTWGQGTQVTVSS
B9: Nb-006 (VHH)
VHH: QVQLVESGGGLVQAGESLRLSCAASGSTVSPYTMGWYRQAPGKQREWVATIRSDRSTNYADSVLGRFTISRDNAKNTVYLQMNSLKPEDTAVYQCYALQGGLLLGQGTQVTVSS

How the values were obtained:
[1] = biological target: T1, SARS-CoV-2 original strain spike receptor-binding domain (S-RBD) (SARS-CoV-2, UniProt P0DTC2)
[2] = biological target: T1, SARS-CoV-2 original strain spike …; test: SPR; settings: both partners purified

Binder	binding result [1]	Kd [2] [pM]
B1	binds	–
B2	binds	–
B3	–	67.4
B4	binds	–
B5	binds	–
B6	binds	–
B7	binds	–
B8	binds	–
B9	binds	–
